Tested on: MS2 coat protein
Assay: apparent KD of MS2 coat protein; designed switch direction (-1 OFF switch, 1 ON switch): 1; higher = weaker reporter binding
Summary of the method: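 Designed RNA switches were transcribed on Illumina chips by stalled E. coli RNA polymerase and titrated with SNAP-549-labelled MS2 coat protein from 0.7 or 1.5 nM, doubling to 3 µM. Step length ran from 0.8–1.5 h at the lowest concentration to 10–20 min at the highest. The apparent KD is the median over clusters for each design, from curve-fitted normalised cluster fluorescence.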

[1] = Eterna round: R95, input ligand: FMN 200 uM
[2] = Eterna round: R95, input ligand: microRNA oligo, concentration not stated
[3] = input ligand: microRNA oligo, concentration not stated

GCAUUACAUGAGGAUCACCCAUGUCUCUAAAGUCGAGGAUAUGGGCAGGUUAUAUCCGAACCAGAAGGCGAAUUGC [SS1 Teenbexe 10] (puzzle: Same State 1)
apparent KD of MS2 coat protein [1]: 0.138 µM
apparent KD of MS2 coat protein [2]: 0.244 µM
apparent KD of MS2 coat protein (Eterna round: R95, input ligand: none): 0.198 µM

GCCAACUUAUGAGGAUAUGGCACCUUAUUGGUGCCAGAAGGCAUGUGAAUUCACAUGAGGAUCACCCAUGUAUUAUAGUUGGCA [Fiskers NG1ss - 20] (Eterna round: R96, puzzle: Same State NG 1)
apparent KD of MS2 coat protein (input ligand: FMN 200 uM): 0.0323 µM
apparent KD of MS2 coat protein [3]: 0.221 µM
apparent KD of MS2 coat protein (input ligand: none): 0.356 µM

GCCCAUAGUAUAUGGAUACAAGCUUUUUGACAUGAGGAUCACCCAUGUACUCGUCUUAUGUGCAGUCCGUAGACUGC [JL-shm-2.20 Brourd mod] (puzzle: Sensor for hsa-mir-208a)
apparent KD of MS2 coat protein [1]: 0.0268 µM
apparent KD of MS2 coat protein [2]: 0.0158 µM

GCCGCAAGGGCAGGAUAUGGGUCCAGAGUGCAAAUGCACUCCGGUACAUGAGGAUCACCCAUGUCCCAGAAGGGCCCAAGCGGC [Bilaatdi] (Eterna round: R96, puzzle: Same State NG 2)
apparent KD of MS2 coat protein (input ligand: FMN 200 uM): 0.0128 µM
apparent KD of MS2 coat protein [3]: 0.144 µM
apparent KD of MS2 coat protein (input ligand: none): 0.163 µM

GCCGCGUUUCGCGCCUACAUGAGGAUCACCCAUGUUUGUAGGCAGGAUAUCGCCCGCUUUGCGGGCGAGAAGGGCUGUUGUGGC [salish99_SSNG3_R04_020] (Eterna round: R96, puzzle: Same State NG 3)
apparent KD of MS2 coat protein (input ligand: FMN 200 uM): 0.059 µM
apparent KD of MS2 coat protein [3]: 0.0388 µM
apparent KD of MS2 coat protein (input ligand: none): 0.0555 µM

GCCGCGUUUCGCGCCUACAUGAGGAUCACCCAUGUUUGUAGGCAGGAUAUCGUCCGCUCUGCGGGCGAGAAGGGCUGUUGUGGG [salish99_SSNG3_R04_023] (Eterna round: R96, puzzle: Same State NG 3)
apparent KD of MS2 coat protein (input ligand: FMN 200 uM): 0.214 µM
apparent KD of MS2 coat protein [3]: 0.139 µM
apparent KD of MS2 coat protein (input ligand: none): 0.179 µM

GCCGGCUGGUGAGGAUAUGGCGCCUUGUUGGUGCCAGAAGGCAUGUCAAUUGACAUGAGGAUCACCCAUGUGUUGUCGUUGGCG [salish99_SSNG1_r04_611] (Eterna round: R96, puzzle: Same State NG 1)
apparent KD of MS2 coat protein (input ligand: FMN 200 uM): 0.808 µM
apparent KD of MS2 coat protein [3]: 0.11 µM
apparent KD of MS2 coat protein (input ligand: none): 0.459 µM

GCGAAAUGAUGUGACAUGAGGAUCACCCAUGUAACCUCAUGUAAGGAUAUCGGAAAAAAAAAAACCGAGAAGGUAUGGUCACGC [AK SSNG3-V2-27.1] (Eterna round: R96, puzzle: Same State NG 3)
apparent KD of MS2 coat protein (input ligand: FMN 200 uM): 0.124 µM
apparent KD of MS2 coat protein [3]: 0.0864 µM
apparent KD of MS2 coat protein (input ligand: none): 0.216 µM

GCGAGCGUACUUGCAACAUGAGGAUCACCCAUGUUAACUGGACAGGAUAUGGUACCGUUUCGGUACCAGAAGGGUUCCUCAUUG [JL SSNG3 3.63] (Eterna round: R96, puzzle: Same State NG 3)
apparent KD of MS2 coat protein (input ligand: FMN 200 uM): 0.319 µM
apparent KD of MS2 coat protein [3]: 0.0347 µM
apparent KD of MS2 coat protein (input ligand: none): 0.437 µM

GCGAGCGUACUUGCAGACAUGAGGAUCACCCAUGUAACUGGACAGGAUAUGGUACCGUUUCGGUACCAGAAGGGUCCAUAUGUC [JL SSNG3 3.54] (Eterna round: R96, puzzle: Same State NG 3)
apparent KD of MS2 coat protein (input ligand: FMN 200 uM): 0.0644 µM
apparent KD of MS2 coat protein [3]: 0.115 µM
apparent KD of MS2 coat protein (input ligand: none): 0.13 µM

GCGAGCGUACUUGCAGACAUGAGGAUCACCCAUGUAACUGGGUAGGAUAUGGUACCGUUUCGGUACCAGAAGGACUUAUGAAAG [JL SSNG3 1.50] (Eterna round: R96, puzzle: Same State NG 3)
apparent KD of MS2 coat protein (input ligand: FMN 200 uM): 0.067 µM
apparent KD of MS2 coat protein [3]: 0.035 µM
apparent KD of MS2 coat protein (input ligand: none): 0.0544 µM

GCGGAGAGGUAAGGAUAUCCAUGGAAGAAACAUGAGGAUCACCCAUGUAGGAAGAAGACUAGGAGGGAGAAGGUACCGGGACGC [AK SSNG2-V2-20.1] (Eterna round: R96, puzzle: Same State NG 2)
apparent KD of MS2 coat protein (input ligand: FMN 200 uM): 0.0292 µM
apparent KD of MS2 coat protein [3]: 0.0262 µM
apparent KD of MS2 coat protein (input ligand: none): 0.0405 µM

GCGGAGAGGUAAGGAUAUCCAUGGCAUAGACAUGAGGAUCACCCAUGUAGGAGACGAAUUAGAAGGGAGAAGGUACCGGGACGC [AK SSNG2-V2-19] (Eterna round: R96, puzzle: Same State NG 2)
apparent KD of MS2 coat protein (input ligand: FMN 200 uM): 0.175 µM
apparent KD of MS2 coat protein [3]: 0.111 µM
apparent KD of MS2 coat protein (input ligand: none): 0.168 µM

GCGGAGAGGUCAGGAUAUCCAUGGAAGACACAUGAGGAUCACCCAUGUGGGAGGGAAACCAGGAGGGAGAAGGGACCGGGACGC [ssng2 v2 c] (Eterna round: R96, puzzle: Same State NG 2)
apparent KD of MS2 coat protein (input ligand: FMN 200 uM): 0.0114 µM
apparent KD of MS2 coat protein [3]: 0.0103 µM
apparent KD of MS2 coat protein (input ligand: none): 0.0133 µM

GCUACAUGAGGAUCACCCAUGUGUGCGUGGGAGUGAGUGGCUUAGGAUAUCUAUGACUUUAGUUGAGAGAAGGAGGAUUGCUGU [SS-NG3-LRO11] (Eterna round: R96, puzzle: Same State NG 3)
apparent KD of MS2 coat protein (input ligand: FMN 200 uM): 0.19 µM
apparent KD of MS2 coat protein [3]: 0.105 µM
apparent KD of MS2 coat protein (input ligand: none): 0.173 µM

GCUAGAAAUAAUGCCAACAUGAGGAUCACCCAUGUAUGUUGGCAGGAUAUCGUAUGCAAAGCAUACGAGAAGGGCUAAACUAGC [Mat - Same State NG 3 - JL Mod - D9] (Eterna round: R96, puzzle: Same State NG 3)
apparent KD of MS2 coat protein (input ligand: FMN 200 uM): 0.217 µM
apparent KD of MS2 coat protein [3]: 0.19 µM
apparent KD of MS2 coat protein (input ligand: none): 0.231 µM

GCUAGAAUAAACGCCUACAUGAGGAUCACCCAUGUAUGUAGGCAGGAUAUCGUUUGCAAAGCAAACGAGAAGGGCCUUACUAGC [Mat - Same State NG 3 - JL Mod - D32] (Eterna round: R96, puzzle: Same State NG 3)
apparent KD of MS2 coat protein (input ligand: FMN 200 uM): 0.0202 µM
apparent KD of MS2 coat protein [3]: 0.0222 µM
apparent KD of MS2 coat protein (input ligand: none): 0.0371 µM

GCUAGAAUUAAAGCCAACAUGAGGAUCACCCAUGUAUGUUGGUAGGAUAUCGUUUGCAAAGCAAACGAGAAGGGCCAAACUAGC [Mat - Same State NG 3 - JL Mod - D19] (Eterna round: R96, puzzle: Same State NG 3)
apparent KD of MS2 coat protein (input ligand: FMN 200 uM): 0.0866 µM
apparent KD of MS2 coat protein [3]: 0.104 µM
apparent KD of MS2 coat protein (input ligand: none): 0.0997 µM

GCUAGAAUUAAUGCUAACAUGAGGAUCACCCAUGUAUGUUGGCAGGAUAUCGUUUGCUUUGCAAACGAGAAGGGCCAUACUAGC [JL SSNG3 1.09] (Eterna round: R96, puzzle: Same State NG 3)
apparent KD of MS2 coat protein (input ligand: FMN 200 uM): 0.02 µM
apparent KD of MS2 coat protein [3]: 0.014 µM
apparent KD of MS2 coat protein (input ligand: none): 0.0263 µM

GCUCGAAUCAGAACCAACAUGAGGAUCACCCAUGUGUGUUGGUAGGAUAUCGUUUCUAAGAGAAACGAGAAGGGCCGAACGAGC [SameState NG3 #6] (Eterna round: R96, puzzle: Same State NG 3)
apparent KD of MS2 coat protein (input ligand: FMN 200 uM): 0.041 µM
apparent KD of MS2 coat protein [3]: 0.0523 µM
apparent KD of MS2 coat protein (input ligand: none): 0.0757 µM

GCUCGACGUAUUGUUUACAUGAGGAUCACCCAUGUAGGUGCGAAGGAUAUCUACGUGUUUCAUGUAGAGAAGGUCGUGUCGAGC [SameState NG3 #92] (Eterna round: R96, puzzle: Same State NG 3)
apparent KD of MS2 coat protein (input ligand: FMN 200 uM): 0.0193 µM
apparent KD of MS2 coat protein [3]: 0.0425 µM
apparent KD of MS2 coat protein (input ligand: none): 0.0541 µM

GCUCGACUGAUGGCCUACAUGAGGAUCACCCAUGUGAUUGGGCAGGAUAUCUAGAUGCAGGAUGUAGAGAAGGGCCGGUCGAGC [SameState NG3 #46] (Eterna round: R96, puzzle: Same State NG 3)
apparent KD of MS2 coat protein (input ligand: FMN 200 uM): 0.472 µM
apparent KD of MS2 coat protein [3]: 0.501 µM
apparent KD of MS2 coat protein (input ligand: none): 0.475 µM

GCUCGAUGUGCUGUUUACAUGAGGAUCACCCAUGUAGAUGCGGAGGAUAUCUACGUGCUUUAUGUAGAGAAGGUCGUAUCGAGC [SameState NG3 #83] (Eterna round: R96, puzzle: Same State NG 3)
apparent KD of MS2 coat protein (input ligand: FMN 200 uM): 0.0334 µM
apparent KD of MS2 coat protein [3]: 0.0412 µM
apparent KD of MS2 coat protein (input ligand: none): 0.0608 µM

GCUCGCACGAUGACCCACAUGAGGAUCACCCAUGUGCAUGGGCAGGAUAUCUAGAUUAAGGAUGUAGAGAAGGGUUGAGCGAGC [SameState NG3 #26] (Eterna round: R96, puzzle: Same State NG 3)
apparent KD of MS2 coat protein (input ligand: FMN 200 uM): 1.58 µM
apparent KD of MS2 coat protein [3]: 0.193 µM
apparent KD of MS2 coat protein (input ligand: none): 0.533 µM

GCUCGCACGAUGACCGACAUGAGGAUCACCCAUGUGUGUCGGUAGGAUAUCUAUAUUAAGGAUUUAGAGAAGGGCCGAGCGAGC [SameState NG3 #21] (Eterna round: R96, puzzle: Same State NG 3)
apparent KD of MS2 coat protein (input ligand: FMN 200 uM): 0.0571 µM
apparent KD of MS2 coat protein [3]: 0.104 µM
apparent KD of MS2 coat protein (input ligand: none): 0.117 µM

GCUCGUACGAUGACCGACAUGAGGAUCACCCAUGUGUGUCGGUAGGAUAUCUAUAUUAAGGAUUUAGAGAAGGGCCCAACGAGC [SameState NG3 #19] (Eterna round: R96, puzzle: Same State NG 3)
apparent KD of MS2 coat protein (input ligand: FMN 200 uM): 0.0633 µM
apparent KD of MS2 coat protein [3]: 0.0665 µM
apparent KD of MS2 coat protein (input ligand: none): 0.082 µM
